Test results reported in patent US20200339648A1 (University of Washington, published 2020).
Residue numbers refer to the chain shown, from its start. Each block holds one molecule with its values, some of them ahead of it.

Columns and labels:
[1] = target: human IL-2 receptor βγc heterodimer (hIL-2Rβγc), soluble (human) (UniProt P14784); assay: SPR, equilibrium titration; IL-2Rγ on streptavidin chip, saturating IL-2Rβ in solution
[2] = target: mouse IL-2 receptor βγc heterodimer (mIL-2Rβγc), soluble (mouse) (UniProt P16297); assay: as above
[3] = target: T1, human IL-2 receptor β subunit (hIL-2Rβ) (human, UniProt P14784 27-240, biotin on the C-terminal biotin acceptor peptide); assay: SPR, equilibrium titration; biotinylated IL-2Rβ on streptavidin chip
T1 construct: Biotinylated and immobilised on streptavidin; also called HsIL-2Rβ; human IL-2Rβ
T1 sequence: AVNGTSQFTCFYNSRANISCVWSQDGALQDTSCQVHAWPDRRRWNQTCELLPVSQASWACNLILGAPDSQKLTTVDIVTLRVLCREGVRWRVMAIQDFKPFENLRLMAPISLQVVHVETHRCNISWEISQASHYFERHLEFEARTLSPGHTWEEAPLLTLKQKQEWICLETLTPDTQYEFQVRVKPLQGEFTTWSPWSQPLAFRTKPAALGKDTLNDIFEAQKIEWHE
Description: (§1) Less than 100 response units (RU) of each ligand was immobilized to minimize mass transfer effects. […] Surface regeneration for all interactions was conducted using 15 s exposure to 1 M MgCl2 in 10 mM sodium acetate pH 5.5. SPR experiments were carried out in HBS-P+ buffer (GE Healthcare) supplemented with 0.2% bovine serum albumin (BSA) at 25° C. and all binding studies were performed at a flow rate of […] to prevent analyte rebinding. Data was visualized and processed using the Biacore T100 evaluation software version 2.0 (GE Healthcare). Equilibrium titration curve fitting and equilibrium binding dissociation (KD) value determination was implemented using GraphPad Prism assuming all binding interactions to be first order. Biolayer interferometry: binding data were collected in a Octet RED96 (ForteBio, Menlo Park, Calif.) and processed using the instrument's integrated software using a 1:1 binding model. […] Analyte proteins were diluted from concentrated stocks into binding buffer. After baseline measurement in binding buffer alone, the binding kinetics were monitored by dipping the biosensors in wells containing 100 nM of the designed protein (association) and then dipping the sensors back into baseline wells (dissociation).

[4] = target: T2, mouse IL-2 receptor β subunit (mIL-2Rβ) (mouse, UniProt P16297 27-240, biotin on the C-terminal biotin acceptor peptide); assay: as above
T2 construct: extracellular domain; Biotinylated form for SPR; also called MmIL-2Rβ; murine IL-2Rβ
T2 sequence: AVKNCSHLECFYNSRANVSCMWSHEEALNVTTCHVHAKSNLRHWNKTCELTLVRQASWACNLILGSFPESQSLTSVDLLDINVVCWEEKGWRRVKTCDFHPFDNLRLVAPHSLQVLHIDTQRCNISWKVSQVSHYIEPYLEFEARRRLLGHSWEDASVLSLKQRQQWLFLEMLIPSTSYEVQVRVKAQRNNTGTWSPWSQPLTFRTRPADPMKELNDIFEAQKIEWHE
Description: as §1

[5] = target: human IL-2Rβγc on human cells (YT-1 NK cells) (human) (UniProt P14784); assay: cell-based or functional assay
[6] = target: T3, IL-2Rβγc (species not stated); assay: biolayer interferometry
T3 chain 1: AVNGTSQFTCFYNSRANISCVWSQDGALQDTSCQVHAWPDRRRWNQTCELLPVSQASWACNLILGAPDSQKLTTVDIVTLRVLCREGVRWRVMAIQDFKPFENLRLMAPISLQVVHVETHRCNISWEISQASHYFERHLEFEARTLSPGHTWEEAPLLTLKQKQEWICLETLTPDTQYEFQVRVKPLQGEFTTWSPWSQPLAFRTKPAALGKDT
T3 chain 2: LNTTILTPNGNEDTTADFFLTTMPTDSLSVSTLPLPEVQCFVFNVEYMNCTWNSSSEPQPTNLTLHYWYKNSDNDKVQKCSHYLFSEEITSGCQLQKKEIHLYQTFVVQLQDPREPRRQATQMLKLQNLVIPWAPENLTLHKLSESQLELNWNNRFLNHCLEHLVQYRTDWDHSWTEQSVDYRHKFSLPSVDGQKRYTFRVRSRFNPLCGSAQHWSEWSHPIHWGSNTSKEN

[7] = target: T4, human IL-2 receptor βγc heterodimer (hIL-2Rβγc), soluble (human, UniProt P14784 27-240; P31785 23-254, biotin on the C-terminal biotin acceptor peptide); assay: SPR, equilibrium titration; IL-2Rγ on streptavidin chip, saturating IL-2Rβ in solution
T4 construct: also called HsIL-2Rβγc; hIL-2Rβνc
T4 sequence 1: T3 chain 1
T4 sequence 2: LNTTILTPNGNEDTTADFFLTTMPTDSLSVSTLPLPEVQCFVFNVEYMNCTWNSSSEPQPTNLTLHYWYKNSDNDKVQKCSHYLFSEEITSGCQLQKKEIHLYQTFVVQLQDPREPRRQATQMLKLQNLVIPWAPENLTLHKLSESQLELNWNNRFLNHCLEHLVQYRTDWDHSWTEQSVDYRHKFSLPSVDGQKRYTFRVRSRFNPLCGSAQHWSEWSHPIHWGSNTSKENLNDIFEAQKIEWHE
Description: as §1

[8] = target: T5, human IL-2Rβγc on human cells (YT-1 NK cells) (human, UniProt P14784 27-551; P31785 23-369); assay: cell-based or functional assay
T5 sequence (looked up) 1: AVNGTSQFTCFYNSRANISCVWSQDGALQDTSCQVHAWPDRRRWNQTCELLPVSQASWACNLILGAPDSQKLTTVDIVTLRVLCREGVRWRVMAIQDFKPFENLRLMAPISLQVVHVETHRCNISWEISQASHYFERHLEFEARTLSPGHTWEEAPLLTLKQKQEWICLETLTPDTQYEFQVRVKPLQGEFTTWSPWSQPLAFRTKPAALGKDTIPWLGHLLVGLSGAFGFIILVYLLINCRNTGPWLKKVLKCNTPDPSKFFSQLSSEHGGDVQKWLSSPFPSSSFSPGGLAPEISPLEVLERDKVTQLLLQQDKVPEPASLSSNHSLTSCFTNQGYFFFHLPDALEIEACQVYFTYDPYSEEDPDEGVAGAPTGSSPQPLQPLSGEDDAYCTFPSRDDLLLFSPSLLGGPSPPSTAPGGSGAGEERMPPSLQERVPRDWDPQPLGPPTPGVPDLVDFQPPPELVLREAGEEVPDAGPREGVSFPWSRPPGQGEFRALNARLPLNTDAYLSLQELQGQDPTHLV
T5 sequence (looked up) 2: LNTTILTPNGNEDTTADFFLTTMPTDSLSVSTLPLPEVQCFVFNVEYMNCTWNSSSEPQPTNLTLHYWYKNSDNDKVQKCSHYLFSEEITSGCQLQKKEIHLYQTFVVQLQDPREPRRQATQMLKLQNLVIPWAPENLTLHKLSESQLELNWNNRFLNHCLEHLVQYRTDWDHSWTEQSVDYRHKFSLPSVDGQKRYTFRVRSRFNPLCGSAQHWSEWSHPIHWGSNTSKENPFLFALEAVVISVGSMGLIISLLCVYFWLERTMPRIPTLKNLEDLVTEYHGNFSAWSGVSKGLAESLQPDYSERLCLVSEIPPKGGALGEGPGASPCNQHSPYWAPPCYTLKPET

[9] = target: T6, mouse IL-2 receptor βγc heterodimer (mIL-2Rβγc), soluble (mouse, UniProt P16297 27-240; P34902 23-263, biotin on the C-terminal biotin acceptor peptide); assay: biolayer interferometry; biotin-mIL2Gamma on streptavidin biosensor, MSA-Neo2 titrated from 729 to 1 nM with saturating mIL2Beta
T6 construct: extracellular domain; In SPR and BLI the gamma chain is on the chip or sensor and mIL-2Rβ is added in solution at saturating concentration (5 uM in SPR); also called MmIL-2Rβγc; mIL-2Rβνc
T6 sequence 1: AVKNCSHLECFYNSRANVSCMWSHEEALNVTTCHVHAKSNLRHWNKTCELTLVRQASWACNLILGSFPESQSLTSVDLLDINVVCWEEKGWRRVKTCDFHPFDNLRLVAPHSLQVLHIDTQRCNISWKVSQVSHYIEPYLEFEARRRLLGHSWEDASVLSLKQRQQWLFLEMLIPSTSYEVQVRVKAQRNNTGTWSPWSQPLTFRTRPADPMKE
T6 sequence 2: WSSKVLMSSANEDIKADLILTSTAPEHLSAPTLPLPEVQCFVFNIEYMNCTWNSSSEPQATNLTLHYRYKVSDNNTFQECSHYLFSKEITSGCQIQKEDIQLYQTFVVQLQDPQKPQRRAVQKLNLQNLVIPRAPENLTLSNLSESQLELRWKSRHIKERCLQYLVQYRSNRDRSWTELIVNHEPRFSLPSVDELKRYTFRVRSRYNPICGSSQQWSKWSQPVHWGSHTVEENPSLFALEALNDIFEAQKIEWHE

[10] = target: T7, fluorescently labeled chimeric hIL-2Rβγc (human, UniProt P14784 27-240; P31785 23-254); assay: yeast display, flow cytometry
T7 construct: How beta and gamma are joined and labeled is not described; also called fluorescently-tagged beta-gamma chimeric IL-2 receptor; chimeric ILRβγc
T7 sequence (looked up) 1: T3 chain 1
T7 sequence (looked up) 2: T3 chain 2

B2: G1_neo2_40 (designed binder)
chain: STKKLQLQAEHALLDAQMMLNRSPEPNEKLNRIITTMQSWISTGKIDLDGAKELAKEVEELRQEAEKRGIDVRDLASNLKVILLELA
notes: also called G1_ne02_40
Kd [7]: 260 nM | EC50 (CD25-) pSTAT5p, human NK (YT, CD25-) cells [8]: 0.14 nM | Kd [3]: 1460 nM

B3: G1_neo2_41 (designed binder)
chain: B2 chain with W40C, I46C
notes: Single-disulfide stapled variation; In yeast display between Aga2 and a myc tag; also called G1_ne02_41
Kd [7]: 187 nM | EC50 (CD25-) pSTAT5p, human NK (YT, CD25-) cells [8]: 70 pM | Kd [3]: 721 nM

B5: Mouse Serum Albumin (MSA) fusion to Neoleukin-2/15 (other)
chain: GSDGGSHHHHHHGSGSENLYFQGSGEAHKSEIAHRYNDLGEQHFKGLVLIAFSQYLQKCSYDEHAKLVQEVTDFAKTCVADESAANCDKSLHTLFGDKLCAIPNLRENYGELADCCTKQEPERNECFLQHKDDNPSLPPFERPEAEAMCTSFKENPTTFMGHYLHEVARRHPYFYAPELLYYAEQYNEILTQCCAEADKESCLTPKLDGVKEKALVSSVRQRMKCSSMQKFGERAFKAWAVARLSQTFPNADFAEITKLATDLTKVNKECCHGDLLECADDRAELAKYMCENQATISSKLQTCCDKPLLKKAHCLSEVEHDTMPADLPAIAADFVEDQEVCKNYAEAKDVFLGTFLYEYSRRHPDYSVSLLLRLAKKYEATLEKCCAEANPPACYGTVLAEFQPLVEEPKNLVKTNCDLYEKLGEYGFQNAILVRYTQKAPQVSTPTLVEAARNLGRVGTKCCTLPEDQRLPCVEDYLSAILNRVCLLHEKTPVSEHVTKCCSGSLVERRPCFSALTVDETYVPKEFKAETFTFHSDICTLPEKEKQIKKQTALAELVKHKPKATAEQLKTVMDDFAQFLDTCCKAADKDTCFSTEGPNLVTRCKDALAGGGSGGSGGGSGGSGSGPKKKIQLHAEHALYDALMILNIVKTNSPPAEEKLEDYAFNFELILEEIARLFESGDQKDEAEKAKRMKEWMKRIKTTASEDEQEEMANAIITILQSWIFS
notes: also called MSA-Neo2
Kd [9]: 33.5 nM

B7: G1_neo2_43 (designed binder)
chain: STKKIQLQLEHALLDVQMALNRSPEPNESLNRMITWLQSCISTGKCDLDNAQEMAKEAEKIRKEMEKRGIDVRDLISNIIVILLELS
notes: Single-disulfide stapled variation; In yeast display between Aga2 and a myc tag; also called G1_ne02_43
Kd [7]: 533 nM | EC50 (CD25-) pSTAT5p, human NK (YT, CD25-) cells [8]: 0.21 nM | Kd [3]: 2860 nM

Results, then the molecule that gave them:

Kd [1]: 301 nM | Kd [2]: 312 nM | Kd [3]: 2 nM | Kd [4]: 214 nM | EC50 (CD25-) pSTAT5p, human NK (YT, CD25-) cells [5]: 70 pM
Molecule: Super-2/Superkine (PDB: 3QAZ) (ligand)

Kd [6]: ~1.3 nM
B1: Neoleukin-2/15 internal disulfide variant (disulfide between residues 38 and 75) (designed binder)
chain: PKKKIQLHAEHALYDALMILNIVKTNSPPAEEKLEDYCFNFELILEEIARLFESGDQKDEAEKAKRMKEWMKRICTTASEDEQEEMANAIITILQSWIFS
modifications: disulfide bond between the cysteines at residues 38 and 75
notes: also called internal disulfide-staple

Kd [6]: ~1.8 nM
B4: Neoleukin-2/15 terminal disulfide variant (CNSN and NFQC added at the termini) (designed binder)
chain: CNSNKKKIQLHAEHALYDALMILNIVKTNSPPAEEKLEDYAFNFELILEEIARLFESGDQKDEAEKAKRMKEWMKRIKTTASEDEQEEMANAIITILQSWIFNFQC
modifications: disulfide bond between the N-terminal and the C-terminal cysteine
notes: also called external disulfide-staple

binding result [10]: no binding (tested: 2 nM)
B6: G1_neo2_35 (designed binder)
chain: STKKWQLQAEHALLDWQMALNKSPEPNENLNRAITAAQSWISTGKIDCDKAEDIRRNSDQARREAEKRGIDVRDLISNAQVILLEAC

binding result [10]: no binding (tested: 2 nM)
B8: G1_neo2_44 (designed binder)
chain: B7 chain with C40W, C46I, A55C, I80C
